Article PMC9482650, “Quantitative fragmentomics allow affinity mapping of interactomes” (Nature Communications, 2022)

Experiments:
Assay in all cases: holdup assay
Design in all cases: key: below the threshold = too weak to quantify, mostly under pKd 3.1 to 4
Conditions in all cases: plain residues with an end cap or a label only (N-terminal biotin on a linker: ado-ado)
APBA3_1, O96018 = molecular target: T1, APBA3_1, O96018
T1 sequence (O96018 389-490, limits assumed, looked up): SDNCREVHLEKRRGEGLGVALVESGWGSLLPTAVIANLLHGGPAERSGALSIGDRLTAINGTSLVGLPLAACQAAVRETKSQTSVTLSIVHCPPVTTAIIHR

CARD11, Q9BXL7 = molecular target: T2, CARD11, Q9BXL7
T2 sequence (Q9BXL7 662-765, limits assumed, looked up): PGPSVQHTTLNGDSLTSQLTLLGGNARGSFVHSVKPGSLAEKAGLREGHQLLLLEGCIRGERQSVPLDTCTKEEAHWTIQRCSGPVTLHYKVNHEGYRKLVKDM

DFNB31_1, Q9P202 = molecular target: T3, DFNB31_1, Q9P202
T3 sequence (Q9P202 135-233, limits assumed, looked up): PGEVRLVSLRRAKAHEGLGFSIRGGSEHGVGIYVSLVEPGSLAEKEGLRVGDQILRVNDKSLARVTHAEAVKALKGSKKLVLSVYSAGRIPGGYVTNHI

DLG2_2, Q15700 = molecular target: DLG2_2, Q15700
DLG4_1, P78352 = molecular target: DLG4_1, P78352
FRMPD2_2, Q68DX3 = molecular target: FRMPD2_2, Q68DX3
GRASP, Q7Z6J2 = molecular target: GRASP, Q7Z6J2
GRID2IP_1, A4D2P6 = molecular target: GRID2IP_1, A4D2P6
GRIP1_3, Q9Y3R0 = molecular target: T4, GRIP1_3, Q9Y3R0
T4 sequence (Q9Y3R0 247-346, limits assumed, looked up): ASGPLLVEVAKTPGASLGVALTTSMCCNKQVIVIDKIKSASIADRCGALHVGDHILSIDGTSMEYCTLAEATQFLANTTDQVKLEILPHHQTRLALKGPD

GRIP2_4, Q9C0E4 = molecular target: GRIP2_4, Q9C0E4
GRIP2_7, Q9C0E4 = molecular target: GRIP2_7, Q9C0E4
HTRA1, Q92743 = molecular target: HTRA1, Q92743
HTRA4, P83105 = molecular target: T5, HTRA4, P83105
T5 sequence (P83105 378-476, limits assumed, looked up): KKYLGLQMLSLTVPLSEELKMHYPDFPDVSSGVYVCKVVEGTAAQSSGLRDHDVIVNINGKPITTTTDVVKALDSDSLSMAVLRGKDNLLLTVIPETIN

Inadl_2, Q8NI35 = molecular target: Inadl_2, Q8NI35
Inadl_6, Q8NI35 = molecular target: Inadl_6, Q8NI35
LDB3, O75112 = molecular target: LDB3, O75112
LIMK2, P53671 = molecular target: LIMK2, P53671
LIN7C, Q9NUP9 = molecular target: T6, LIN7C, Q9NUP9
T6 sequence (Q9NUP9 88-185, limits assumed, looked up): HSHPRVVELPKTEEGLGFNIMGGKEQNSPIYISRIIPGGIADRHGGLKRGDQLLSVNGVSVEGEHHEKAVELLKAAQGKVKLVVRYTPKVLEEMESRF

MAGI2_2, Q86UL8 = molecular target: MAGI2_2, Q86UL8
MAGI2_5, Q86UL8 = molecular target: MAGI2_5, Q86UL8
MAGI3_2, Q5TCQ9 = molecular target: MAGI3_2, Q5TCQ9
NHERF2_2, Q15599 = molecular target: NHERF2_2, Q15599
NHERF3_3, Q5T2W1 = molecular target: T7, NHERF3_3, Q5T2W1
T7 sequence (Q5T2W1 238-333, limits assumed, looked up): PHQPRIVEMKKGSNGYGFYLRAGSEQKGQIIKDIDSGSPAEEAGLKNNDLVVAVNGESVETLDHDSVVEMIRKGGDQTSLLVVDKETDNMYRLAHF

NHERF4_4, Q86UT5 = molecular target: NHERF4_4, Q86UT5
PARD3_3, Q8TEW0 = molecular target: PARD3_3, Q8TEW0
RAPGEF6, Q8TEU7 = molecular target: T8, RAPGEF6, Q8TEU7
T8 sequence (Q8TEU7 525-625, limits assumed, looked up): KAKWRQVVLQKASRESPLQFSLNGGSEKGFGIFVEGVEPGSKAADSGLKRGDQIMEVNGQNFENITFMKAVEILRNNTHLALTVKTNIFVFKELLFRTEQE

SHANK1, Q9Y566 = molecular target: T9, SHANK1, Q9Y566
T9 sequence (Q9Y566 658-767, limits assumed, looked up): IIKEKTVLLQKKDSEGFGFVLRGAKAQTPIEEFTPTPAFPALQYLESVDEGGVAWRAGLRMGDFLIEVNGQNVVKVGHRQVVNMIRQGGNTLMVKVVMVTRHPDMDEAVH

SNX27, Q96L92 = molecular target: SNX27, Q96L92

GRID2IP_1, A4D2P6, sequence (A4D2P6 1-87): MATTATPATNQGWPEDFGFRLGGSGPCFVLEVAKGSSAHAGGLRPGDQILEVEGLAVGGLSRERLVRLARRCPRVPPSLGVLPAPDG
GRIP2_4, Q9C0E4, sequence (Q9C0E4 446-548): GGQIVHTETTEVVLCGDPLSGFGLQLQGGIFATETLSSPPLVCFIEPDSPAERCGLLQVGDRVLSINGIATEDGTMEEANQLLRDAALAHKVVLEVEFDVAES
Inadl_2, Q8NI35, sequence (Q8NI35 238-335): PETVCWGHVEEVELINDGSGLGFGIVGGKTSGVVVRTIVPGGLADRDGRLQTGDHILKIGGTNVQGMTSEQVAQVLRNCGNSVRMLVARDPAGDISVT
DLG4_1, P78352, sequence (P78352 62-152): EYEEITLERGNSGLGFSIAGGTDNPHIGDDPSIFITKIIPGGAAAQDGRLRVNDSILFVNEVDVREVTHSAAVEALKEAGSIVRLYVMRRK
NHERF4_4, Q86UT5, sequence (Q86UT5 464-550): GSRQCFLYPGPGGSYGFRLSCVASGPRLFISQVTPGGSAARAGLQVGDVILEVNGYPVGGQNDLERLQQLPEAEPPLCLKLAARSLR
MAGI3_2, Q5TCQ9, sequence (Q5TCQ9 398-503): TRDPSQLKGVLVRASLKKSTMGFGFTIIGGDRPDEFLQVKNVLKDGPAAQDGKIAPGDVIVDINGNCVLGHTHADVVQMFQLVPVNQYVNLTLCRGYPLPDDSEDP
DLG2_2, Q15700, sequence (Q15700 189-283): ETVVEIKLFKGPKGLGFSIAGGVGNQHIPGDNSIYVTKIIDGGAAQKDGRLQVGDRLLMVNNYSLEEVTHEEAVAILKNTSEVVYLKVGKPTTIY
PARD3_3, Q8TEW0, sequence (Q8TEW0 582-685): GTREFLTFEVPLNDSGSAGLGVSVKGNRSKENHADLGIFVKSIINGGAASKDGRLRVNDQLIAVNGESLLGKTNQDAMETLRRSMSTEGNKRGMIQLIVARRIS
MAGI2_2, Q86UL8, sequence (Q86UL8 410-522): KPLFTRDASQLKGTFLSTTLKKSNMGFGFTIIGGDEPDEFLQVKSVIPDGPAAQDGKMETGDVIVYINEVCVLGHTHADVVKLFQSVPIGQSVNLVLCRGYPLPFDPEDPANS
NHERF2_2, Q15599, sequence (Q15599 142-238): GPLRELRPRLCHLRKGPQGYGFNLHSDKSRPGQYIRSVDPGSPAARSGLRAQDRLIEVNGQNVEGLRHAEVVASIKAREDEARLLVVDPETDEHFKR
LDB3, O75112, sequence (O75112 1-94): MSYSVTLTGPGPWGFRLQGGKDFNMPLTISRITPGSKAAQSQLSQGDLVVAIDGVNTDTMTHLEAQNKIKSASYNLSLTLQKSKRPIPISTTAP
MAGI2_5, Q86UL8, sequence (Q86UL8 915-1017): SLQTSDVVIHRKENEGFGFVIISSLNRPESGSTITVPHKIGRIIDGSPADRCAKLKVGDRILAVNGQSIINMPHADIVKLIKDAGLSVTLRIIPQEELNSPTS
LIMK2, P53671, sequence (P53671 143-248): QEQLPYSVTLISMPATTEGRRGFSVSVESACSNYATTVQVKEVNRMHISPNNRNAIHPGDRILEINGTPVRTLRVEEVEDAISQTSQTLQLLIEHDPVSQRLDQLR
GRASP, Q7Z6J2, sequence (Q7Z6J2 96-193): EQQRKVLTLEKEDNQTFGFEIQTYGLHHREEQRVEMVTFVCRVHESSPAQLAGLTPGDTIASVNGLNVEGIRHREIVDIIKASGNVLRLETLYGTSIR
HTRA1, Q92743, sequence (Q92743 360-477): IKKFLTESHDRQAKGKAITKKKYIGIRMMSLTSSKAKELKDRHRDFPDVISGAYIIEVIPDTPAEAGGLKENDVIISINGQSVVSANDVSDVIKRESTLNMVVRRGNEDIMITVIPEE
FRMPD2_2, Q68DX3, sequence (Q68DX3 944-1038): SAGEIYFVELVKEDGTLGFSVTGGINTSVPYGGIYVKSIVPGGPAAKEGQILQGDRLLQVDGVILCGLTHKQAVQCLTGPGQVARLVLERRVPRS
Inadl_6, Q8NI35, sequence (Q8NI35 1058-1167): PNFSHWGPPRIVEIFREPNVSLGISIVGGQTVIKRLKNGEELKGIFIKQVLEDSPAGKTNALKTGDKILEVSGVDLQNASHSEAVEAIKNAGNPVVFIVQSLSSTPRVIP
GRIP2_7, Q9C0E4, sequence (Q9C0E4 934-1023): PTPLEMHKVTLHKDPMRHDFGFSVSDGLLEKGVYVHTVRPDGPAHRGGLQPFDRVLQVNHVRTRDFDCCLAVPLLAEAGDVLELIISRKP

Binder | pKd (APBA3_1, O96018) | pKd (CARD11, Q9BXL7) | pKd (DFNB31_1, Q9P202) | pKd (DLG2_2, Q15700) | pKd (DLG4_1, P78352) | pKd (FRMPD2_2, Q68DX3) | pKd (GRASP, Q7Z6J2) | pKd (GRID2IP_1, A4D2P6) | pKd (GRIP1_3, Q9Y3R0) | pKd (GRIP2_4, Q9C0E4) | pKd (GRIP2_7, Q9C0E4) | pKd (HTRA1, Q92743) | pKd (HTRA4, P83105) | pKd (Inadl_2, Q8NI35) | pKd (Inadl_6, Q8NI35) | pKd (LDB3, O75112) | pKd (LIMK2, P53671) | pKd (LIN7C, Q9NUP9) | pKd (MAGI2_2, Q86UL8) | pKd (MAGI2_5, Q86UL8) | also measured
DGVNEKVSCV [HTR2A, P28223] | below the threshold | below the threshold | below the threshold | 4.56 | 3.69 | 4.65 | 4.21 | below the threshold | below the threshold | below the threshold | below the threshold | 4.95 | 3.71 | below the threshold | 3.57 | below the threshold | below the threshold | 3.78 | 4.15 | 4.78 | pKd (MAGI3_2, Q5TCQ9): 4.47; pKd (NHERF2_2, Q15599): below the threshold; pKd (NHERF3_3, Q5T2W1): below the threshold; pKd (NHERF4_4, Q86UT5): below the threshold; pKd (PARD3_3, Q8TEW0): below the threshold; pKd (RAPGEF6, Q8TEU7): below the threshold; pKd (SHANK1, Q9Y566): below the threshold; pKd (SNX27, Q96L92): 5.15
EPQYQPGENL [SRC, P12931] | below the threshold | below the threshold | below the threshold | below the threshold | below the threshold | below the threshold | below the threshold | below the threshold | below the threshold | below the threshold | below the threshold | below the threshold | 3.9 | below the threshold | below the threshold | below the threshold | below the threshold | below the threshold | below the threshold | below the threshold | pKd (MAGI3_2, Q5TCQ9): below the threshold; pKd (NHERF2_2, Q15599): 3.77; pKd (NHERF3_3, Q5T2W1): below the threshold; pKd (NHERF4_4, Q86UT5): below the threshold; pKd (PARD3_3, Q8TEW0): 3.6; pKd (RAPGEF6, Q8TEU7): below the threshold; pKd (SHANK1, Q9Y566): below the threshold; pKd (SNX27, Q96L92): 3.79
